The source of these data is patent US20260242735A1 (UNIVERSIT T BASEL, published 2026).

Assay [1] has as its target human CD33 L23A (human, UniProt P20138 18-364). Put plainly: alanine scan, flow cytometry.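 Further: HEK293-T cells transiently expressing single-residue alanine mutants of CD33 (alanine swapped to serine), antibody binding read by fluorescence in duplicate, background-subtracted, expressed relative to wild-type CD33.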 For orientation: In flow cytometry, cells or beads pass a laser one at a time.
Method: (§1) An alanine scan on human CD33 was performed to the determine the residues on CD33 that are involved in binding to the antibodies investigated. […] Briefly, a mutation library of CD33 was created by high-throughput, site-directed mutagenesis. Each residue was individually mutated to alanine, with alanine codons mutated to serine. The mutant library was arrayed in 384-well microplates and transiently transfected into HEK293-T. Following transfection, cells were incubated with the indicated antibodies (IgG or Fab) at concentrations pre-determined using an independent immunofluorescence titration curve on wild type CD33. […] Binding of each antibody to each mutant clone was determined in duplicates. For each point, background fluorescence was subtracted from the raw data, which were then normalized to antibody reactivity with wild type CD33.
(§2) Critical residues for antibody binding (outlined in dark grey) were residues whose mutations led to a binding of the test Abs of less than 20%. Additional secondary residues (outlined in light grey) were identified that led to a binding of the test Abs of between 20 and 40% as compared to the wild type CD33.
Assay [2] concerns the target human CD33 S28A (human, UniProt P20138 18-364). Nature of the assay: alanine scan, flow cytometry.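 Further: HEK293-T cells transiently expressing single-residue alanine mutants of CD33 (alanine swapped to serine), antibody binding read by fluorescence in duplicate, background-subtracted, expressed relative to wild-type CD33.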
Method: as §1, §2
The target in assay [3] is human CD33 T30A (human, UniProt P20138 18-364). Nature of the assay: alanine scan, flow cytometry.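 Further: HEK293-T cells transiently expressing single-residue alanine mutants of CD33 (alanine swapped to serine), antibody binding read by fluorescence in duplicate, background-subtracted, expressed relative to wild-type CD33.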
Method: as §1, §2
The target of assay [4] is human CD33 E33A (human, UniProt P20138 18-364). Nature of the assay: alanine scan, flow cytometry.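 Further: HEK293-T cells transiently expressing single-residue alanine mutants of CD33 (alanine swapped to serine), antibody binding read by fluorescence in duplicate, background-subtracted, expressed relative to wild-type CD33.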
Method: as §1, §2
The target of assay [5] is human CD33 P40A (human, UniProt P20138 18-364). Put plainly: alanine scan, flow cytometry.
Method: as §1, §2
The target of assay [6] is human CD33 T42A (human, UniProt P20138 18-364). Nature of the assay: alanine scan, flow cytometry.
Method: as §1, §2
Assay [7] addresses human CD33 K52A (human, UniProt P20138 18-364). Nature of the assay: alanine scan, flow cytometry.
Method: as §1, §2
Assay [8] deals with human CD33 G58A (human, UniProt P20138 18-364). Nature of the assay: alanine scan, flow cytometry.
Method: as §1, §2
Assay [9] deals with human CD33 Y59A (human, UniProt P20138 18-364). Nature of the assay: alanine scan, flow cytometry.
Method: as §1, §2
In assay [10] the target is human CD33 F61A (human, UniProt P20138 18-364). Nature of the assay: alanine scan, flow cytometry.
Method: as §1, §2
In assay [11] the target is human CD33 R62A (human, UniProt P20138 18-364). Put plainly: alanine scan, flow cytometry.
Method: as §1, §2
Assay [12] deals with human CD33 E63A (human, UniProt P20138 18-364). Nature of the assay: alanine scan, flow cytometry.
Method: as §1, §2
For assay [13], the target named is human CD33 P72A (human, UniProt P20138 18-364). Nature of the assay: alanine scan, flow cytometry.
Method: as §1, §2
In assay [14] the target is human CD33 V73A (human, UniProt P20138 18-364). Put plainly: alanine scan, flow cytometry.
Method: as §1, §2
The target of assay [15] is human CD33 A74S (human, UniProt P20138 18-364). Put plainly: alanine scan, flow cytometry.
Method: as §1, §2
The target of assay [16] is human CD33 L78A (human, UniProt P20138 18-364). Nature of the assay: alanine scan, flow cytometry.
Method: as §1, §2
The target in assay [17] is human CD33 Q80A (human, UniProt P20138 18-364). Nature of the assay: alanine scan, flow cytometry.
Method: as §1, §2
Assay [18] deals with human CD33 G88A (human, UniProt P20138 18-364). Put plainly: alanine scan, flow cytometry.
Method: as §1, §2
The target in assay [19] is human CD33 F44A (human, UniProt P20138 18-364). Put plainly: alanine scan, flow cytometry.
Method: as §1, §2
Assay [20] deals with T1, human CD33 extracellular region, wild type (human, UniProt P20138 18-259).
T1 construct: also called WT; CD33 wt
Put plainly: BLI Octet, IgG captured on AHC, CD33 analyte.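 Further: CD33 variants and wild type run as analyte at 5, 50 and 500 nM, 700 s association then 1200 s dissociation, buffer-only reference subtracted, global 1:1 fit.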 In general terms: In BLI a coated tip is dipped into the sample, and binding shifts an interference pattern.
Method: (§3) Human CD33 wt and variants, were used as analyte at 3 different concentrations (500, 50 and 5 nM). Association of the analyte to the antibodies was monitored for 700 s and dissociation of the analyte from the antibodies was monitored for 1200 s. Reference subtraction was performed against buffer only wells. AHC tips were regenerated using 10 mM Glycine-HCl pH 1.7. Data were analyzed with Octet Data Analysis software HT 12.0. Data were fitted to a 1:1 binding model. Kinetic rates ka and kd and response signal were globally fitted.

In assay [21] the target is human CD33 extracellular region N20E (human, UniProt P20138 21-259). Nature of the assay: BLI Octet, IgG captured on AHC, CD33 analyte.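 Further: CD33 variants and wild type run as analyte at 5, 50 and 500 nM, 700 s association then 1200 s dissociation, buffer-only reference subtracted, global 1:1 fit.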
Method: as §3
Assay [22] concerns the target human CD33 extracellular region F21V (human, UniProt P20138 22-259). Put plainly: BLI Octet, IgG captured on AHC, CD33 analyte.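 Further: CD33 variants and wild type run as analyte at 5, 50 and 500 nM, 700 s association then 1200 s dissociation, buffer-only reference subtracted, global 1:1 fit.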
Method: as §3
Assay [23] concerns the target human CD33 extracellular region F21I (human, UniProt P20138 22-259). Put plainly: BLI Octet, IgG captured on AHC, CD33 analyte.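 Further: CD33 variants and wild type run as analyte at 5, 50 and 500 nM, 700 s association then 1200 s dissociation, buffer-only reference subtracted, global 1:1 fit.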
Method: as §3
Assay [24] concerns the target human CD33 extracellular region F21S (human, UniProt P20138 22-259). Nature of the assay: BLI Octet, IgG captured on AHC, CD33 analyte.
Method: as §3
The target of assay [25] is human CD33 extracellular region F21H (human, UniProt P20138 22-259). Put plainly: BLI Octet, IgG captured on AHC, CD33 analyte.
Method: as §3
The target of assay [26] is human CD33 extracellular region F44P (human, UniProt P20138 18-259). Nature of the assay: BLI Octet, IgG captured on AHC, CD33 analyte.
Method: as §3
Assay [27] addresses human CD33 extracellular region F44S (human, UniProt P20138 18-259). Put plainly: BLI Octet, IgG captured on AHC, CD33 analyte.
Method: as §3
The target in assay [28] is human CD33 extracellular region P48D (human, UniProt P20138 18-259). Put plainly: BLI Octet, IgG captured on AHC, CD33 analyte.
Method: as §3
Assay [29] deals with human CD33 extracellular region P48S (human, UniProt P20138 18-259). Put plainly: BLI Octet, IgG captured on AHC, CD33 analyte.
Method: as §3
Assay [30] has as its target human CD33 extracellular region Y50K (human, UniProt P20138 18-259). Nature of the assay: BLI Octet, IgG captured on AHC, CD33 analyte.
Method: as §3
The target in assay [31] is human CD33 extracellular region Y50H (human, UniProt P20138 18-259). Put plainly: BLI Octet, IgG captured on AHC, CD33 analyte.
Method: as §3
Assay [32] deals with human CD33 extracellular region Y50H_Y49H (human, UniProt P20138 18-259). Put plainly: BLI Octet, IgG captured on AHC, CD33 analyte.
Method: as §3
For assay [33], the target named is human CD33 extracellular region N100Q (human, UniProt P20138 18-259). Put plainly: BLI Octet, IgG captured on AHC, CD33 analyte.
Method: as §3

Sequence of human CD33 R62A (P20138 18-364 R62A limits assumed): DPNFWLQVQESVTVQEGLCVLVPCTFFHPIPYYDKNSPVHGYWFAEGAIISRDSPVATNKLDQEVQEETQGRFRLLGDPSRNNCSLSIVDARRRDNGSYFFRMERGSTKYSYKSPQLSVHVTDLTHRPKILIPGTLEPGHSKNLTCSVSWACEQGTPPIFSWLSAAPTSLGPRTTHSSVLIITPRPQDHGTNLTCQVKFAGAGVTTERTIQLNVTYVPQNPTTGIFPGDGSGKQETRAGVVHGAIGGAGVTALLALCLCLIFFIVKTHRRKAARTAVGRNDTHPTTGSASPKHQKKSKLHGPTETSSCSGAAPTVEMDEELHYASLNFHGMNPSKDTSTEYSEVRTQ
Sequence of human CD33 P72A (P20138 18-364 P72A limits assumed): as the sequence (P20138 18-364 R62A limits assumed) above, with A45R, P55A counted along it
Sequence of human CD33 F44A (P20138 18-364 F44A limits assumed): as the sequence (P20138 18-364 R62A limits assumed) above, with F27A, A45R counted along it
Sequence of human CD33 S28A (P20138 18-364 S28A limits assumed): as the sequence (P20138 18-364 R62A limits assumed) above, with S11A, A45R counted along it
Sequence of human CD33 F61A (P20138 18-364 F61A limits assumed): as the sequence (P20138 18-364 R62A limits assumed) above, with F44A, A45R counted along it
Sequence of human CD33 T30A (P20138 18-364 T30A limits assumed): as the sequence (P20138 18-364 R62A limits assumed) above, with T13A, A45R counted along it
Sequence of human CD33 V73A (P20138 18-364 V73A limits assumed): as the sequence (P20138 18-364 R62A limits assumed) above, with A45R, V56A counted along it
Sequence of human CD33 L78A (P20138 18-364 L78A limits assumed): as the sequence (P20138 18-364 R62A limits assumed) above, with A45R, L61A counted along it
Sequence of human CD33 E63A (P20138 18-364 E63A limits assumed): as the sequence (P20138 18-364 R62A limits assumed) above, with A45R, E46A counted along it
Sequence of human CD33 P40A (P20138 18-364 P40A limits assumed): as the sequence (P20138 18-364 R62A limits assumed) above, with P23A, A45R counted along it
Sequence of human CD33 A74S (P20138 18-364 A74S limits assumed): as the sequence (P20138 18-364 R62A limits assumed) above, with A45R, A57S counted along it
Sequence of human CD33 G88A (P20138 18-364 G88A limits assumed): as the sequence (P20138 18-364 R62A limits assumed) above, with A45R, G71A counted along it
Sequence of human CD33 E33A (P20138 18-364 E33A limits assumed): as the sequence (P20138 18-364 R62A limits assumed) above, with E16A, A45R counted along it
Sequence of human CD33 Y59A (P20138 18-364 Y59A limits assumed): as the sequence (P20138 18-364 R62A limits assumed) above, with Y42A, A45R counted along it

B1: Refmab #3 (antibody, V domains shown)
VH: QVQLVQSGAEVKKPGSSVKVSCKASGYTFTDYNMHWVRQAPGQGLEWIGYIYPYNGGTGYNQKFKSKATITADESTNTAYMELSSLRSEDTAVYYCARGRPAMDYWGQGTLVTVSS
VL: DIQMTQSPSSLSASVGDRVTITCRASESVDNYGISFMNWFQQKPGKAPKLLIYAASNQGSGVPSRFSGSGSGTDFTLTISSLQPDDFATYYCQQSKEVPWTFGQGTKVEIK
notes: Full-length format is human IgG1 Fc silent (PG-LALA); The alanine scan used IgG or Fab
With B1, the “Mean % WT Binding” value is 91.5 % WT in assay [1]; 193 % WT in assay [2]; 104 % WT in [3]; 94.9 % WT in [4]; 122 % WT in assay [5]; 198 % WT in assay [6]. The “Mean % WT Binding” value in [7] came out at 80.3 % WT; in assay [8], 87.4 % WT; in assay [9], 145 % WT; in [10], 304 % WT; in assay [11] it was 91.8 % WT; in [12], 124 % WT. The “Mean % WT Binding” value in assay [13] is 108 % WT; in assay [14], 149 % WT; in assay [15], 115 % WT; in [16], 113 % WT; in assay [17], 123 % WT; in [18], 88.3 % WT.

B2: Refmab #2 (antibody, V domains shown)
VH: QVQLVQSGAEVKKPGSSVKVSCKASGGTFSDYAISWVRQAPGQGLEWMGRIIPILGVADYAQKFQGRVTITADKSTRTAYMELSSLRSEDTAVYYCARNWADAFDIWGQGTMVTVSS
VL: DIQLTQSPSSLSASVGDRVTITCRASQGISSVLAWYQQKPGKAPKLLIYDASSLESGVPSRFSGSGSGTDFTLTISSLQPEDFATYYCQQFDSSITFGQGTKLEIK
notes: as for B1
As for B2, the “Mean % WT Binding” value in assay [1] amounted to 83.4 % WT; in assay [2], 117 % WT; in assay [3] it was 92.1 % WT; in assay [4] it was 120 % WT; in [5], 101 % WT; in [6] it was 112 % WT. Besides, the “Mean % WT Binding” value in assay [19] was 1.2 % WT; in assay [7], 94.9 % WT; in assay [8], 118 % WT; in assay [9] it was 95.7 % WT; in assay [10] it was 135 % WT; in assay [11], 124 % WT. In addition, the “Mean % WT Binding” value is 107 % WT in [12]; 114 % WT in [13]; 99.1 % WT in assay [14]; 91.7 % WT in assay [15]; 108 % WT in [16]; 112 % WT in [17]. The “Mean % WT Binding” value in assay [18] was determined as 110 % WT.

B3: Refmab #1 (antibody, V domains shown)
VH: EVQLVQSGAEVKKPGSSVKVSCKASGYTITDSNIHWVRQAPGQSLEWIGYIYPYNGGTDYNQKFKNRATLTVDNPTNTAYMELSSLRSEDTAFYYCVNGNPWLAYWGQGTLVTVSS
VL: DIQLTQSPSTLSASVGDRVTITCRASESLDNYGIRFLTWFQQKPGKAPKLLMYAASNQGSGVPSRFSGSGSGTEFTLTISSLQPDDFATYYCQQTKEVPWSFGQGTKVEVK
notes: Full-length format is human IgG1 (Absolute Antibody Ab00283-10.0); The alanine scan used IgG or Fab; also called hP67.6
B3: the “Mean % WT Binding” value stood at 82.7 % WT in [1]; 93.9 % WT in assay [2]; 89.3 % WT in assay [3]; 86.4 % WT in [4]; 74.5 % WT in [5]; 105 % WT in [6]. Besides, the “Mean % WT Binding” value in assay [19] was determined as 85.1 % WT; in assay [7], 84.2 % WT; in [8], 77.4 % WT; in [9] it was 93.6 % WT; in assay [10], 95 % WT; in [11], 121 % WT. The “Mean % WT Binding” value came out at 107 % WT in [12]; 99.9 % WT in assay [13]; 73.6 % WT in assay [14]; 83.7 % WT in [15]; 87.4 % WT in assay [16]; 91.6 % WT in [17]. Besides, the “Mean % WT Binding” value in assay [18] was 96.1 % WT.

B4: Refmab #4 (antibody, V domains shown)
VH: QVQLVQSGAEVKKPGESVKVSCKASGYTFTNYGMNWVKQAPGQGLEWMGWINTYTGEPTYADKFQGRVTMTTDTSTSTAYMEIRNLGGDDTAVYYCARWSWSDGYYVYFDYWGQGTSVTVSS
VL: DIVMTQSPDSLTVSLGERTTINCKSSQSVLDSSTNKNSLAWYQQKPGQPPKLLLSWASTRESGIPDRFSGSGSGTDFTLTIDSPQPEDSATYYCQQSAHFPITFGQGTRLEIK
notes: as for B1
For B4, the “Mean % WT Binding” value in [1] came out at 23.7 % WT; in [2], 79.9 % WT; in assay [3] it was 104 % WT; in [4], 87.1 % WT; in [5], 43 % WT; in assay [6], 67.4 % WT. Besides, the “Mean % WT Binding” value in [19] was 152 % WT; in assay [7], 9.8 % WT; in assay [8], 62.2 % WT; in assay [9] it was 97.6 % WT; in [10], 131 % WT; in [11], 104 % WT. Besides, the “Mean % WT Binding” value in [12] is 84.1 % WT; in assay [13], 94.6 % WT; in assay [14] it was 67.2 % WT; in assay [15], 72.5 % WT; in [16], 111 % WT; in assay [17], 124 % WT. The “Mean % WT Binding” value in assay [18] turned out to be 97.7 % WT.

B5: Refmab #4 (antibody, human IgG1, V domains shown)
VH: B4 VH
VL: B4 VL
For the molecule B5, the “% WT binding” value in assay [20] is 100%; in assay [21] it was 100%; in [22], 101%; in [23], 84.2%; in assay [24], 78.3%; in [25], 108%. The “% WT binding” value in assay [26] was found to be 87.4%; in assay [27], 84.6%; in assay [28], 5.75%; in assay [29], 21.8%; in assay [30] it was 0%; in [31] it was 28%. In addition, the figures for the “% WT binding” value in assay [32] and in [33] were 0% and 114%, respectively.
